# Test results published in patent US20170145086A1 (VISTERRA, published 2017).
# T1: HA-GCN4 hAPRIL (amino acid residues 105-250) (human, UniProt O75888 105-250)
# T1 construct: Bought (R&D Systems); also called HA-tagged GCN4 human APRIL; HA-GCN4-huAPRIL; not shown: N-terminal HA tag; GCN4 isoleucine zipper oligomerization domain
# T1 sequence: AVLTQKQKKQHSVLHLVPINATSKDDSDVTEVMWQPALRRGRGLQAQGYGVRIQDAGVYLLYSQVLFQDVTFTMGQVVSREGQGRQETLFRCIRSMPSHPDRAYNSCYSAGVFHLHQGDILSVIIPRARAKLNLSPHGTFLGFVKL
# T2: human RANKL (TNFSF11; Adipogen) (human, UniProt O14788 152-317, limits assumed)
# T2 sequence (looked up): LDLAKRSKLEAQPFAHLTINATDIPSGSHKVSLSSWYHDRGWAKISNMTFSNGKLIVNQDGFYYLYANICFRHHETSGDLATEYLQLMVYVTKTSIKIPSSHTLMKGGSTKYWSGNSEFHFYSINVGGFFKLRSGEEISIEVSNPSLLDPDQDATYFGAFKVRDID
# T3: human Tweak (TNFSF12; Abcam) (human, UniProt O43508 94-249, limits assumed)
# T3 sequence (looked up): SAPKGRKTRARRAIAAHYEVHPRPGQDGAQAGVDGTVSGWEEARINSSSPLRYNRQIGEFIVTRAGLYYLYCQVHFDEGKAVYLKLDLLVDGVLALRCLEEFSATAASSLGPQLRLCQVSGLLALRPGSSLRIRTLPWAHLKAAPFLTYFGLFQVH
# T4: human FasL (TNFSF6, Adipogen) (human, UniProt P48023 103-281, limits assumed)
# T4 sequence (looked up): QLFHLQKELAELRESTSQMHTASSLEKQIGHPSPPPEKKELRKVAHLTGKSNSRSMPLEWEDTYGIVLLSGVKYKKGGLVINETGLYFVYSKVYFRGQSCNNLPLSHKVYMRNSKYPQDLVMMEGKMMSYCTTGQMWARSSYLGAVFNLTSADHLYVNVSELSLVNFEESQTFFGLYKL
# Columns and labels:
# [1] = biological target: T1, HA-GCN4 hAPRIL (amino acid residues …); assay: blocking ELISA, 4-parameter fit; blocked: human APRIL binding to human BCMA-Fc
# Protocol: FIGS. 19A-19B depict the antibody inhibition of APRIL binding to TNFSF receptors TACI (FIG. 19A) and BCMA (FIG. 19B). Assay is based on blocking ELISA using recombinant human APRIL (R&D Systems) and Human TACI-Fc. Inhibition was analyzed by non-linear regression using a four parameter fit.
# Recombinant TACI-Fc or BCMA-Fc was coated on 96 well plates in 0.1 M carbonate-bicarbonate buffer (pH 9.6), overnight at 4° C. Plates were washed three times with 1×PBST (PBS+0.025% Tween 20) followed by blocking with 1% BSA in 1×PBS, 37° C. for 1 hour. All subsequent wash steps were carried out with 1×PBST. To assess antibody blocking, either 15 ng/mL or 50 ng/mL HA-GCN4-huAPRIL was preincubated with varying antibody concentrations ranging from 0.03-30 μg/mL in binding buffer comprised of 1% BSA and 0.025% Tween-20 in 1×PBS. Preincubation was carried out at 30° C. for 1 hour with mixing. Antibody-APRIL premix with 50 ng/mL APRIL or 15 ng/mL APRIL was then added to TACI-Fc coated or BCMA-Fc coated plates, respectively, and incubated for an additional hour at 30° C. HA-tagged APRIL binding to either receptor was quantified using a goat polyclonal anti-HA tag-HRP antibody (Abcam) added at a 1:10000 dilution followed by colorimetric development using 100 μl/well of freshly prepared TMB substrate (KPL) carried out for up to 30 minutes at room temperature before quenching enzymatic reaction by the addition of 1N sulfuric acid. ELISA signal was quantified by absorbance at 450 nm. ELISA data was analyzed by non-linear regression. IC₅₀ values were calculated based on a 4 parameter fit of antibody titration curves. […] Non-blocking antibodies Aprly-1 or Aprly-5 (Enzo Biosciences) were used as negative controls. Mouse specific, blocking antibody aprily-1-1 (Adipogen) was generally used as a positive control in experiments using mouse APRIL (HA-GCN4-mAPRIL).
# [2] = biological target: T2, human RANKL (TNFSF11; Adipogen); assay: indirect ELISA, cytokine coated
# Protocol: (§1) Selected anti-APRIL antibodies were evaluated for potential cross-reactivity with other members of the TNFa superfamily (TNFSF) family of cytokines, including: human TNFα (TNFSF2; Adipogen), human […] (TNFSF4, Adipogen), human FasL (TNFSF6, Adipogen), human TRAIL (TNFSF10, Adipogen), human RANKL (TNFSF11; Adipogen), human Tweak (TNFSF12; Abcam), human and mouse BAFF (TNFSF13B, AB Biosciences and Adipogen, respectively), and human LIGHT (TNFSF14, Adipogen). These cytokines share variable degree of sequence as well as higher order structural homologies. Among them, BAFF appears to be the most closely related to APRIL, with 29% identity and 53% amino acid sequence similarity.
# (§2) Binding was evaluated by an indirect ELISA protocol using similar methods described for evaluation of APRIL binding; cytokines were immobilized to ELISA plate at 50 ng per well and then exposed to a solution of each of the test antibodies at a fixed concentration of 10 μg/ml Anti-human or anti-mouse Ig-HRP polyclonal antibody conjugates (Jackson Laboratories) were used for detection of antibody binding. The results presented in FIG. 36 indicated eleven of the twelve antibodies tested in this assay to specifically bind APRIL with no measurable cross-reactivity with the other TNFSF members substantially above assay background.
# [3] = biological target: human BAFF (TNFSF13B, AB Biosciences) (human, UniProt Q9Y275 134-285, limits assumed); assay: indirect ELISA, cytokine coated
# human BAFF (TNFSF13B, AB Biosciences), sequence (Q9Y275 134-285 limits assumed): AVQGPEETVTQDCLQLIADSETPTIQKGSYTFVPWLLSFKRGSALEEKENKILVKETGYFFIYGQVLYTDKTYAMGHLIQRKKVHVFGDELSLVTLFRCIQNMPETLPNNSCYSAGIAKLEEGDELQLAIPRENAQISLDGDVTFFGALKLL
# Protocol: as §1, §2
# [4] = biological target: human TNFα (TNFSF2; Adipogen) (human, UniProt P01375 85-233, limits assumed); assay: indirect ELISA, cytokine coated
# human TNFα (TNFSF2; Adipogen), sequence (P01375 85-233 limits assumed): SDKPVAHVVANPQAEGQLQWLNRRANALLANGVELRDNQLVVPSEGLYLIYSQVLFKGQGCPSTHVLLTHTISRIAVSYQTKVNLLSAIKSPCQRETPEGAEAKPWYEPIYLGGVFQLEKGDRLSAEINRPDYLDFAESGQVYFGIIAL
# Protocol: as §1, §2
# [5] = biological target: T3, human Tweak (TNFSF12; Abcam); assay: indirect ELISA, cytokine coated
# Protocol: as §1, §2
# [6] = biological target: human LIGHT (TNFSF14, Adipogen) (human, UniProt O43557 89-240, limits assumed); assay: indirect ELISA, cytokine coated
# human LIGHT (TNFSF14, Adipogen), sequence (O43557 89-240 limits assumed): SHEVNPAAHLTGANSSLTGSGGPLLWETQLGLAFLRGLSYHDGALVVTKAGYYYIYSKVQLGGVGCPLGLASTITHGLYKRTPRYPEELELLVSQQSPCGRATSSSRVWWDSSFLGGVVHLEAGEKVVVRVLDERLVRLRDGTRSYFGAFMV
# Protocol: as §1, §2
# [7] = biological target: human TRAIL (TNFSF10, Adipogen) (human, UniProt P50591 95-281, limits assumed); assay: indirect ELISA, cytokine coated
# human TRAIL (TNFSF10, Adipogen), sequence (P50591 95-281 limits assumed): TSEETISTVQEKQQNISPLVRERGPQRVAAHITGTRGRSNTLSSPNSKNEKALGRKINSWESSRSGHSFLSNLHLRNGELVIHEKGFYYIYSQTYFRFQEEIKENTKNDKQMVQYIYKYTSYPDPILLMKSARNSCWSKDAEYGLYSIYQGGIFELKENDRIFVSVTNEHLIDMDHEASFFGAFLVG
# Protocol: as §1, §2
# [8] = biological target: T4, human FasL (TNFSF6, Adipogen); assay: indirect ELISA, cytokine coated
# Protocol: as §1, §2
# [9] = biological target: mouse BAFF (TNFSF13B, Adipogen) (mouse, UniProt Q9WU72 127-309, limits assumed); assay: indirect ELISA, cytokine coated
# mouse BAFF (TNFSF13B, Adipogen), sequence (Q9WU72 127-309 limits assumed): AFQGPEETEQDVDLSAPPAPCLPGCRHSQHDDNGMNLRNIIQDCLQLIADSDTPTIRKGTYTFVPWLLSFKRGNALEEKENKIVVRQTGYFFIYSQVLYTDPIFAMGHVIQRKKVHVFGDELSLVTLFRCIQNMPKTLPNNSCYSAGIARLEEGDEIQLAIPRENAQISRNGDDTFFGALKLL
# Protocol: as §1, §2
Binder,IC50 [1],binding result [2],binding result [3],binding result [4],binding result [5],binding result [6],binding result [7],binding result [8],binding result [9]
"monoclonal antibody 2218 (antibody, mouse IgG2, V domains shown) VH: DVQLQESGPGLVKPSQSLSLTCSVTGYSITSGYYWNWIRQFPGNKLEWMGYISYDGYNNYNPSLKNRISITRDTSKNQFFLKLNSVTTEDTATYYCANYYDYEDWYFGVWGTGTTVTVSS VL: DIVLTQSPASLAMSLGKRATISCRASESVSIIGTNSIHWYQQKPGQPPKLLIYHASNLETGVPARFSGSGSRTDFTLTIDPVEEDDVAIYYCLQSRKIPYTFGGGTKLEIK",0.31 nM,no binding (tested: 10 µg/ml (p-1128)),no binding (tested: 10 µg/ml (p-1128)),no binding (tested: 10 µg/ml (p-1128)),no binding (tested: 10 µg/ml (p-1128)),no binding (tested: 10 µg/ml (p-1128)),no binding (tested: 10 µg/ml (p-1128)),no binding (tested: 10 µg/ml (p-1128)),no binding (tested: 10 µg/ml (p-1128))
"monoclonal antibody 3631 (antibody, V domains shown, mouse-derived) VH: EIQLQQSGPELVKPGASVKVSCKASGYSFTDYNIYWVKQSHGKSLEWIGYIDPSNGGPGYNQKFRGKATLTVDKSSSTAFLHLNSLTSEDSAVYYCARRDNYGSGTMDYWGQGTSVTVSS VL: DIVMTQSQKFMSTSVGDRVSITCKASQNVGTDVSWYQQKPGKSPKPLIYWASNRFTGVPDRFIGSGSGTDFTLTISNVQSEDLADYFCEQYSIYPLTFGAGTKLELK",0.48 nM,no binding (tested: 10 µg/ml (p-1128)),–,no binding (tested: 10 µg/ml (p-1128)),no binding (tested: 10 µg/ml (p-1128)),no binding (tested: 10 µg/ml (p-1128)),no binding (tested: 10 µg/ml (p-1128)),no binding (tested: 10 µg/ml (p-1128)),–
"monoclonal antibody 3732 (antibody, V domains shown, mouse-derived) VH: EIQLQQSGPELVKPGASVKVSCKASGYSFTDDNMYWVKQSHGKSLEWIGYIDPLNGGTGYNQKFKGKATLTVDKSSSTAFLHLNSLTSEDSAVYYCARRDNYATGTMDYWGQGTSVTVSS VL: DIVMTQSQKFMSTSVGDRVSITCKASKNVGTDVSWYQQKPGKSPKPLIYWASNRFTGVPDRFTGSGSGTDFTLTINNVQSEDLADYFCEQYSSYPLTFGAGTKLELK",0.22 nM,no binding (tested: 10 µg/ml (p-1128)),no binding (tested: 10 µg/ml (p-1128)),no binding (tested: 10 µg/ml (p-1128)),no binding (tested: 10 µg/ml (p-1128)),no binding (tested: 10 µg/ml (p-1128)),no binding (tested: 10 µg/ml (p-1128)),no binding (tested: 10 µg/ml (p-1128)),no binding (tested: 10 µg/ml (p-1128))
"monoclonal antibody 4540 (antibody, V domains shown, mouse-derived) VH: QVQLQQSGPELVKPGASVKISCKASGYTFADYYINWVKQRPGQGLEWIGWIFPGSGSTYYNEKFKGKATLTVDKSSSTAYMLLSSLTSEDSAVYFCARGDSGRAMDYWGQGTSVTVSS VL: DIQMTQSPSSLSASLGGKVTITCKASQDINKYIAWYQHKPGKGPRLLIHYTSTLQSGIPSRFSGSGSGRDYSFSISNLEPEDNATYYCLQYDNLLTFGAGTKLELK",0.66 nM,no binding (tested: 10 µg/ml (p-1128)),no binding (tested: 10 µg/ml (p-1128)),no binding (tested: 10 µg/ml (p-1128)),no binding (tested: 10 µg/ml (p-1128)),no binding (tested: 10 µg/ml (p-1128)),no binding (tested: 10 µg/ml (p-1128)),no binding (tested: 10 µg/ml (p-1128)),no binding (tested: 10 µg/ml (p-1128))
"monoclonal antibody 3833 (antibody, V domains shown, mouse-derived) VH: QVQLQQSGAELVRPGTSVKMSCKAAGYTFTNYWIGWVKQRPGHGLEWIGDIYPGGIGGGYTKYNEKFKGKATLTADTSSSTAYMQLGSLTSEDSAIYFCSRSETGRAMDYWGQGTSVTVSS VL: DIQMTQSPSSLSASLGGKVTITCKASQDINKYIAWYQHKPGKGPRLLIHYTSTLKPGIPSRFSGSGSGRDYSFSISDLEPEDIATYYCLQYDNLNTFGGGTKLEIK",2.7 nM,no binding (tested: 10 µg/ml (p-1128)),no binding (tested: 10 µg/ml (p-1128)),no binding (tested: 10 µg/ml (p-1128)),no binding (tested: 10 µg/ml (p-1128)),no binding (tested: 10 µg/ml (p-1128)),no binding (tested: 10 µg/ml (p-1128)),–,no binding (tested: 10 µg/ml (p-1128))
"monoclonal antibody 3530 (antibody, mouse IgG2, V domains shown) VH: QVQLQQSGAELVRPGASVKLSCKASGYTFTDHEMHWVRQTPVHGLEWIGVIDPDTGDTTYNQKFKGKATLTADKSSSTAYMDLRSLTSEDSAVFYCTRWTGGDYWGHGTTLTVSS VL: DAVMTQTPLSLSVTIGQPASISCKSSQSLLYSDGKTYLNWFQQRPGQSPKRLMYQVSKLDPGIPDRFSGSGSETDFTLKISRVEAEDLGVYYCLQGTYYPYTFGSGTKLEIK",0.48 nM,no binding (tested: 10 µg/ml (p-1128)),no binding (tested: 10 µg/ml (p-1128)),no binding (tested: 10 µg/ml (p-1128)),no binding (tested: 10 µg/ml (p-1128)),no binding (tested: 10 µg/ml (p-1128)),no binding (tested: 10 µg/ml (p-1128)),no binding (tested: 10 µg/ml (p-1128)),no binding (tested: 10 µg/ml (p-1128))
